Laboratory results as given in patent US20200022914A1, “LIPOSOMAL COMPOSITIONS AND SOLID ORAL DOSAGE FORMS COMPRISING THE SAME” (UNIVERSITÄT HEIDELBERG, priority 2017, published 2020).

Experiment: Single dose PK study of oral Adalimumab in comparison with intravenous administration
Assay type: in vivo
Conditions: beagle dogs; oral 15 mg in lyophilized liposomes with 1 mol-% cycR9 conjugate in enteric coated capsule vs 3 mg intravenous; comparison of AUC values, ELISA
Experimental: Single dose PK study of oral Adalimumab (Humira™) in comparison with Adalimumab after intravenous administration. As animals, 2 beagle dogs were used. The oral dose of Adalimumab was 15 mg encapsulated in liposomes containing 1-mol% of the cycR9 conjugate described before. The liposomes were lyophilized and afterwards filled in an enteric coated capsule. The intravenous dose was 3 mg. The blood sampling time points for the oral administration were: 0 (pre-dose), 0:15, 0:30, 1:00, 2:00, 4:00, 8:00, 24:00, 48:00, 96:00 h p.a. The blood sampling time points for the intravenous administration were: 0 (pre-dose), 0:15, 0:30, 1:00, 2:00, 4:00, 8:00, 24:00, 48:00, 96:00 h p.a. All blood samples were analyzed by ELISA measurements (IDKmonitor® Adalimumab drug level ELISA, Immundiagnostik AG, Bensheim).

With Adalimumab the “bioavailability after oral administration” value was 3.55%.
